Patent US7223392 (dated 2007)

Legend:
[1] = biological target: p5E8G1; assay: apparent Kd
[2] = biological target: p5E8G1N-; assay: apparent Kd

B1: human CD23 (receptor)
chain: MELQVSSGFVCNTCPEKWINFQRKCYYFGKGTKQWVHARYACDDMEGQLVSIHSPEEQDFLTKHASHTGSWIGLRNLDLKGEFIWVDGSHVDYSNWAPGEPTSRSQGEDCVMMRGSGRWNDAFCDRKLGAWVCDRLATCTPPASEGSAESMGPDSRPDPDGRLPTPSAPLHS
Kd [1]: 0.7 nM
Kd [2]: 0.7 nM
